Data set [1] concerns the molecule itself. In words: cryo-EM structure; purified terminase complex (1 mg/mL), apo or with ADP•BeF3 and pac2 DNA (58 bp; DNA not visible); hexameric and dodecameric assemblies, block-based reconstruction of one terminase complex.
Data set [2] deals with the molecule itself. Description: AUC; sedimentation velocity, Beckman XL-I, 20 °C, 20 mmol/L Hepes, 300 mmol/L NaCl, pH 7.5, A280 ~0.8, 20,000 rpm; shown with SDS-PAGE and electron microscopy (Fig. 1B).

The values that follow come from publication PMC7196598, “Architecture of the herpesvirus genome-packaging complex and implications for DNA translocation” (Protein & Cell, 2020).

“And” between values parts separate entries of the source, which are not always exact repeats. Equal entries are not always repeated.

B1: HSV1-pUL15 (residues 1–737), ATPase/terminase subunit of the herpesvirus terminase complex (natural protein)
chain: MFGQQLASDVQQYLERLEKQRQLKVGADEASAGLTMGGDALRVPFLDFATATPKRHQTVVPGVGTLHDCCEHSPLFSAVARRLLFNSLVPAQLKGRDFGGDHTAKLEFLAPELVRAVARLRFKECAPADVVPQRNAYYSVLNTFQALHRSEAFRQLVHFVRDFAQLLKTSFRASSLTETTGPPKKRAKVDVATHGRTYGTLELFQKMILMHATYFLAAVLLGDHAEQVNTFLRLVFEIPLFSDAAVRHFRQRATVFLVPRRHGKTWFLVPLIALSLASFRGIKIGYTAHIRKATEPVFEEIDACLRGWFGSARVDHVKGETISFSFPDGSRSTIVFASSHNTNGIRGQDFNLLFVDEANFIRPDAVQTIMGFLNQANCKIIFVSSTNTGKASTSFLYNLRGAADELLNVVTYICDDHMPRVVTHTNATACSCYILNKPVFITMDGAVRRTADLFLADSFMQEIIGGQARETGDDRPVLTKSAGERFLLYRPSTTTNSGLMAPDLYVYVDPAFTANTRASGTGVAVVGRYRDDYIIFALEHFFLRALTGSAPADIARCVVHSLTQVLALHPGAFRGVRVAVEGNSSQDSAVAIATHVHTEMHRLLASEGADAGSGPELLFYHCEPPGSAVLYPFFLLNKQKTPAFEHFIKKFNSGGVMASQEIVSATVRLQTDPVEYLLEQLNNLTETVSPNTDVRTYSGKRNGASDDLMVAVIMAIYLAAQAGPPHTFAPITRVS
notes: pUL15 of herpes simplex virus 1 (HSV1), tripartite terminase subunit 3; construct printed as residues 1–737, while the results say pUL15 is 735 residues in length (domains end at 735); Cloned in pFastBac-HTA; No tag cleavage is described; also called ATPase/terminase pUL15; source: Sf9, co-infected with two recombinant baculoviruses (co-expressed with pUL28 and pUL33), purified (Ni-NTA, Superose …)
For B1, the binding result in data set [1] is “binds”.

B2: herpesvirus terminase complex (heterotrimer of pUL15, pUL28 and pUL33), wild type (complex)
chain 1: MFGQQLASDVQQYLERLEKQRQLKVGADEASAGLTMGGDALRVPFLDFATATPKRHQTVVPGVGTLHDCCEHSPLFSAVARRLLFNSLVPAQLKGRDFGGDHTAKLEFLAPELVRAVARLRFKECAPADVVPQRNAYYSVLNTFQALHRSEAFRQLVHFVRDFAQLLKTSFRASSLTETTGPPKKRAKVDVATHGRTYGTLELFQKMILMHATYFLAAVLLGDHAEQVNTFLRLVFEIPLFSDAAVRHFRQRATVFLVPRRHGKTWFLVPLIALSLASFRGIKIGYTAHIRKATEPVFEEIDACLRGWFGSARVDHVKGETISFSFPDGSRSTIVFASSHNTNGIRGQDFNLLFVDEANFIRPDAVQTIMGFLNQANCKIIFVSSTNTGKASTSFLYNLRGAADELLNVVTYICDDHMPRVVTHTNATACSCYILNKPVFITMDGAVRRTADLFLADSFMQEIIGGQARETGDDRPVLTKSAGERFLLYRPSTTTNSGLMAPDLYVYVDPAFTANTRASGTGVAVVGRYRDDYIIFALEHFFLRALTGSAPADIARCVVHSLTQVLALHPGAFRGVRVAVEGNSSQDSAVAIATHVHTEMHRLLASEGADAGSGPELLFYHCEPPGSAVLYPFFLLNKQKTPAFEHFIKKFNSGGVMASQEIVSATVRLQTDPVEYLLEQLNNLTETVSPNTDVRTYSGKRNGASDDLMVAVIMAIYLAAQAGPPHTFAPITRVS
chain 2: MAAPVSEPTVARQKLLALLGQVQTYVFQIELLRRCDPHIGRGKLPQLKLNALQVRALRRRLRPGLEAQAGAFLTPLSVTLELLLEYAWREGERLLGSLETFATAGDVAAFFTETMGLARPCPYHQRVRLDTYGGTVHMELCFLHDVENFLKQLNYCHLITPSRGATAALERVREFMVGAVGSGLIVPPELSDPSHPCAVCFEELCVTANQGATIARRLADRICNHVTQQAQVRLDANELRRYLPHAAGLSDADRARALSVLDHALARTAGGDGQPHPSPENDSVRKEADALLEAHDVFQATTPGLYAISELRFWLASGDRAGQTTMDAFASNLTALARRELQQETAAVAVELALFGRRAEHFDRAFGSHLAALDMVDALIIGGQATSPDDQIEALIRACYDHHLTTPLLRRLVSPEQCDEEALRRVLARMGAGGAADAPKGGAGPDDDGDRVAVEEGARGLGAPGGGGEDEDRRRGPGGQGPETWGDIATQAAADVRERRRLYADRLTKRSLASLGRCVREQRGELEKMLRVSVHGEVLPATFAAVANGFAARARFCALTAGAGTVIDNRSAPGVFDAHRFMRASLLRHQVDPALLPSITHRFFELVNGPLFDHSTHSFAQPPNTALYYSVENVGLLPHLKEELARFIMGAGGSGADWAVSEFQRFYCFDGISGITPTQRAAWRYIRELIIATTLFASVYRCGELELRRPDCSRPTSEGRYRYPPGVYLTYDSDCPLVAIVESAPDGCIGPRSVVVYDRDVFSILYSVLQHLAPRLPDGGHDGPP
chain 3: MAGREGRTRQRTLRDTIPDCALRSQTLESLDARYVSRDGAHDAAVWFEDMTPAELEVVFPTTDAKLNYLSRTQRLASLLTYAGPIKAPDDAAAPQTPDTACVHGELLAAKRERFAAVINRFLDLHQILRG
notes: pUL15 of herpes simplex virus 1 (HSV1); construct printed as residues 1–737, while the results say pUL15 is 735 residues in length; pUL28 of herpes simplex virus 1 (HSV1); construct printed as residues 1–787; pUL33 of herpes simplex virus 1 (HSV1); construct printed as residues 1–132; One heterotrimer is one subunit of the hexameric ring; the hexamer and dodecamer are written as self-association …
As usually defined, the stoichiometry N is the number of molecules, sites or subunits per partner or assembly. For B2, the “stoichiometry N” value in data set [2] was 6 and 12.
